In this test the target is T1, Wild-type CCR8 used as an assay control (Homo sapiens, UniProt P51685).
T1 construct: C-C chemokine receptor 8 (CCR8), human, wild type; Detergent-solubilised; 0.05% DDM and 0.01% CHS in the SPR running buffer; also called WT-CCR8; wild-type Human CCR8 protein; source: bought: Acro Biosystems (Cat. #CC8-H52D6)
As to the kind of experiment: SPR; Biacore 8K; mAb1 IgG1 captured on Protein A chip (about 400 RU); wild-type CCR8 as analyte; 10 mM HEPES, 150 mM NaCl, 3 mM EDTA, 0.005% Tween-20, pH 7.4, with 0.05% DDM and 0.01% CHS; steady-state affinity fit. Conditions: both partners purified. For orientation: SPR reads the build-up and loss of mass on a sensor chip optically.

B1: mAb1 in full length human IgG1 format (antibody, V domains shown)
VH: QSVEESGGRLVTPGTPLTLTCTVSGFSLSNYAMIWVRQAPGEGLEWVGTISLGGYTYYANWAKGRFTISKTSTTVDLKISSPTTEDTATYFCARARWSTDSAIYTYAFDPWGPGTLVTVSS
VL: AYDMTQTPASVEVAVGGTVTIKCQASQSISSYLSWYQQKPGQRPELLIYKASTLASGVSSRFKGSGSGTQFTLTISDLEAADAATYYCQQGYTSSNIDNIFGGGTEVVVK
notes: VH of mAb1; constant region of human IgG1 heavy chain ('full length human IgG1 format'); light chain of mAb1; IgG1; captured on a Protein A chip for SPR; source: CHO cells, purified by one step Protein A chromatography
Take B1: binding was characterised by a dissociation constant (Kd) of 190 nM.
